This note sets out measurements from US20210002376A1 (UNIVERSIT T STUTTGART, published 2021).

A word on the EC50: it is the concentration that produces a half-maximal response. Low values mean a more potent agent, high ones a less potent agent.

Assay [1] addresses T1, CD3 (on Jurkat cells) (UniProt P07766 23-207).
T1 construct: whole, on cells; CD3 is a complex of several chains; only CD3 is printed; also called CD3-positive Jurkat cells; CD3-expressing cells (Jurkat)
Nature of the assay: flow cytometry on CD3-expressing Jurkat cells. A general note: In flow cytometry, cells or beads pass a laser one at a time.
Procedure: (§1) Simultaneous binding of both antigens was tested via flow cytometry using CD3-expressing Jurkat cells. A titration of bispecific Db3-43xhuU3-EHD2-Fab3-43-Fcₖᵢₕ was incubated with the cells for one hour at RT. After washing cells twice with PBA, the second antigen, HER3-His, was added to the cells (300 nM) and incubated for one additional hour at RT. Cells were washed twice using PBA. Bound HER3-His was detected using a PE-labeled anti-His antibody. After washing, median fluorescence intensity (MFI) was measured with a Milltenyi MACSQuant® Analyzer 10. Relative MFI (to unstained cells) were calculated by MACSQuant® software and Excel.
(§2) Binding studies of Db3-43xhuU3-EHD2-scFv3-43-Fcₖᵢₕ to HER3-expressing (SKBR3; Table 5) and CD3-expressing cells (Jurkat) were analyzed via flow cytometry. Adherent SKBR3 cells were washed with PBS and shortly trypsinized at 37° C. Trypsin was quenched with FCS containing medium and removed by centrifugation (500×g, 5 minutes). Jurkat cells, which are suspension cells, were directly used without trypsin treatment. […] Bound antibodies were detected using PE-labeled anti-human Fc secondary antibody, which was incubated for another hour at 4° C. After washing, median fluorescence intensity (MFI) was measured with a Milltenyi MACSQuant® Analyzer 10. Relative MFI (to unstained cells) were calculated by MACSQuant® software and Excel. […]

In assay [2] the target is T2, HER3-His (UniProt P21860 21-643).
T2 construct: range 21-643; also called His-tagged HER3; second antigen
The assay can be described thus: simultaneous binding, flow cytometry: molecule titrated on CD3-positive Jurkat cells, HER3-His 300 nM added, PE anti-His.
Procedure: as §1, §2

Assay [3] deals with T3, HER3 (on tumor cells) (UniProt P21860 20-1342, limits assumed).
T3 construct: whole, on cells; also called HER3 on MCF-7, SKBR-3 (SKBR3) and FaDu cells
The assay can be described thus: flow cytometry on HER3-expressing SKBR-3 cells.

For assay [4], the target named is T2, HER3-His. Nature of the assay: simultaneous binding ELISA: coated EGFR-Fc, Db titrated, HER3-His 300 nM added, anti-His-HRP.
Procedure: (§3) The His-tagged EGFR or HER3 proteins were used as antigens and coated onto polystyrene microtiter plates at a concentration of 2 μg/ml diluted in PBS. Remaining binding sites were blocked with PBS, 2% skimmed milk (MPBS). […] After washing, bound antibodies were detected with an HRP-conjugated anti-human Fc antibody and TMB, H₂O₂ as substrate. […] Simultaneous binding to both antigens, EGFR and HER3, was confirmed by a second binding ELISA analysis. As first antigen, EGFR-Fc fusion protein was coated onto polystyrene microtiter plates at 2 μg/ml in PBS. Remaining binding sites were blocked with PBS, 2% skimmed milk (MPBS). […] After washing, the second antigen, HER3-His (300 nM diluted in MPBS), was added to the plates. After washing, bound HER3-His (second antigen) was detected with an HRP-conjugated anti-His antibody and TMB, H₂O₂ as substrate.
The target in assay [5] is T4, EGFR-His (UniProt P00533 25-645).
T4 construct: range 25-645; also called His-tagged EGFR
The assay can be described thus: ELISA, coated His-tagged EGFR ECD, anti-human Fc-HRP. For orientation: In an ELISA, binding on a coated surface is turned into a signal by an enzyme label.
Procedure: as §3

Assay [6] has as its target T2, HER3-His. The assay can be described thus: ELISA, coated His-tagged HER3 ECD, anti-human Fc-HRP.
Procedure: as §3
Assay [7] concerns the target T5, TNFR2 (on Kym-1 cells) (UniProt P20333 23-461, limits assumed).
T5 sequence (looked up): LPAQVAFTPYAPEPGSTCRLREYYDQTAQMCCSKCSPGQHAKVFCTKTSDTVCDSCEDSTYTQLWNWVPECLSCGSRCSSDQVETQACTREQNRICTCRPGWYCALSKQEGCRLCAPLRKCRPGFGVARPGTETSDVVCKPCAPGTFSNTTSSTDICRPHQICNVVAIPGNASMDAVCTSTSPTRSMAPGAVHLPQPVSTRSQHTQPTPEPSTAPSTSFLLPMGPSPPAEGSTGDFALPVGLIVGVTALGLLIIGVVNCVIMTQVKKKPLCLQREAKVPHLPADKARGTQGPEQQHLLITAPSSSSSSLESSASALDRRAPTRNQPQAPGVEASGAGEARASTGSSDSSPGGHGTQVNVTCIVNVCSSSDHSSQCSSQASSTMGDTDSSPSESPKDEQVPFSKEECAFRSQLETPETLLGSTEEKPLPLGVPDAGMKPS
The assay can be described thus: cell-based or functional assay.

Assay [8] deals with T6, TNFR2-Fc (Enbrel) fusion protein (UniProt P20333 23-257).
T6 construct: extracellular domain; Commercial product (Enbrel) used as coated antigen
T6 sequence (looked up): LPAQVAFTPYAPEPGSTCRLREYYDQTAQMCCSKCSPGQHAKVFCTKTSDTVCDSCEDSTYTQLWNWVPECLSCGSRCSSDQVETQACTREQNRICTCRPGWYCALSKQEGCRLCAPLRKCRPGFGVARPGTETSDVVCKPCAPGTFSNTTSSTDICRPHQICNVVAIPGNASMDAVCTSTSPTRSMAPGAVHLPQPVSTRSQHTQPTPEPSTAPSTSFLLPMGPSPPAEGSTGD
Nature of the assay: ELISA, coated TNFR2-Fc (Enbrel), anti-human Fab-HRP.
Procedure: Bound protein was detected with an HRP-conjugated anti-human Fab antibody. […] Optical density was measured at 450 nm.

T1 sequence (P07766 23-207): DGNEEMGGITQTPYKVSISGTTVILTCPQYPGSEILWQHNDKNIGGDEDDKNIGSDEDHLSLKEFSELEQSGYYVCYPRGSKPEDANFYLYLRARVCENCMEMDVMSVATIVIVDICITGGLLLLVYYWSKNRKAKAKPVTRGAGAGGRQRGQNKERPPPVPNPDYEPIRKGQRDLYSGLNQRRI

B1: Db3-43xhuU3-EHD2-Fab3-43-Fckih (bispecific antibody)
light 1: not shown
heavy 1: QVQLVQSGAEVKKPGSSVKVSCKASGGTFSGYTMNWVRQAPGQGLEWMGLINPYKGVSTYNGKFKDRVTITADKSTSTAYMELSSLRSEDTAVYYCARSGYYGDSDWYFDVWGQGTLVTVSSGGGGSQAGLTQPPAVSVAPGQTASITCGRDNIGSRSVHWYQQKPGQAPVLVVYDDSDRPAGIPERFSGSNYENTATLTISRVEAGDEADYYCQVWGITSDHVVFGGGTKLTVLASDFTPPTVKILQSSCDGGGHFPPTIQLLCLVSGYTPGTINITWLEDGQVMDVDLSTASTTQEGELASTQSELTLSQKHWLSDRTYTCQVTYQGHTFEDSTKKCADSNDKTHTCPPCPAPPVAGPSVFLFPPKPKDTLMISRTPEVTCVVVDVSHEDPEVKFNWYVDGVEVHNAKTKPREEQYNSTYRVVSVLTVLHQDWLNGKEYKCKVSNKGLPSSIEKTISKAKGQPREPQVCTLPPSRDELTKNQVSLSCAVKGFYPSDIAVEWESNGQPENNYKTTPPVLDSDGSFFLVSKLTVDKSRWQQGNVFSCSVMHEALHNHYTQKSLSLSPGK
heavy 2: QVQLQQSGPGLVKPSQTLSLTCAISGDSVSSNRAAWNWIRQSPSRGLEWLGRTYYRSKWYNDYAQSLKSRITINPDTPKNQFSLQLNSVTPEDTAVYYCARDGQLGLDALDIWGQGTMVTVSSASTKGPSVFPLAPSSKSTSGGTAALGCLVKDYFPEPVTVSWNSGALTSGVHTFPAVLQSSGLYSLSSVVTVPSSSLGTQTYICNVNHKPSNTKVDKKVEPKSCGTDKTHTCPPCPAPPVAGPSVFLFPPKPKDTLMISRTPEVTCVVVDVSHEDPEVKFNWYVDGVEVHNAKTKPREEQYNSTYRVVSVLTVLHQDWLNGKEYKCKVSNKGLPSSIEKTISKAKGQPREPQVYTLPPCRDELTKNQVSLWCLVKGFYPSDIAVEWESNGQPENNYKTTPPVLDSDGSFFLYSKLTVDKSRWQQGNVFSCSVMHEALHNHYTQKSLSLSPGK
light 2: QAGLTQPPAVSVAPGQTASITCGRDNIGSRSVHWYQQKPGQAPVLVVYDDSDRPAGIPERFSGSNYENTATLTISRVEAGDEADYYCQVWGITSDHVVFGGGTKLTVLGQPKAAPSVTLFPPSSEELQANKATLVCLISDFYPGAVTVAWKADSSPVKAGVETTTPSKQSNNKYAASSYLSLTPEQWKSHRSYSCQVTHEGSTVEKTVAPTECS
notes: Four different polypeptides; also called bispecific, trivalent Diabody-Fab fusion protein targeting HER3 (3-43) and CD3 (huU3)
Turning to B1, the EC50 is 9.5 nM in assay [1], 13.8 nM in assay [2] and 0.03 nM in assay [3].

B2: Db3-43xhuU3-EHD2-scFv3-43-Fckih (bispecific antibody)
light: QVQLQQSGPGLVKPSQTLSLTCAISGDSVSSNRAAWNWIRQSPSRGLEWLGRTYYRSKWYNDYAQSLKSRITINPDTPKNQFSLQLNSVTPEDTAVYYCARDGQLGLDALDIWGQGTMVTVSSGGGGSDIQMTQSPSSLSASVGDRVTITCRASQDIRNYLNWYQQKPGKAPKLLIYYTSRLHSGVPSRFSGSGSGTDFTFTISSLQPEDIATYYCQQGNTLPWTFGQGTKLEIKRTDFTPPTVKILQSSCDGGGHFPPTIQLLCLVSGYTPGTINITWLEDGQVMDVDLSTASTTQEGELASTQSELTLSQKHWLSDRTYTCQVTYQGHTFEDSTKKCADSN
heavy: QVQLVQSGAEVKKPGSSVKVSCKASGGTFSGYTMNWVRQAPGQGLEWMGLINPYKGVSTYNGKFKDRVTITADKSTSTAYMELSSLRSEDTAVYYCARSGYYGDSDWYFDVWGQGTLVTVSSGGGGSQAGLTQPPAVSVAPGQTASITCGRDNIGSRSVHWYQQKPGQAPVLVVYDDSDRPAGIPERFSGSNYENTATLTISRVEAGDEADYYCQVWGITSDHVVFGGGTKLTVLASDFTPPTVKILQSSCDGGGHFPPTIQLLCLVSGYTPGTINITWLEDGQVMDVDLSTASTTQEGELASTQSELTLSQKHWLSDRTYTCQVTYQGHTFEDSTKKCADSNDKTHTCPPCPAPPVAGPSVFLFPPKPKDTLMISRTPEVTCVVVDVSHEDPEVKFNWYVDGVEVHNAKTKPREEQYNSTYRVVSVLTVLHQDWLNGKEYKCKVSNKGLPSSIEKTISKAKGQPREPQVCTLPPSRDELTKNQVSLSCAVKGFYPSDIAVEWESNGQPENNYKTTPPVLDSDGSFFLVSKLTVDKSRWQQGNVFSCSVMHEALHNHYTQKSLSLSPGK
chain: QVQLQQSGPGLVKPSQTLSLTCAISGDSVSSNRAAWNWIRQSPSRGLEWLGRTYYRSKWYNDYAQSLKSRITINPDTPKNQFSLQLNSVTPEDTAVYYCARDGQLGLDALDIWGQGTMVTVSSGGGGSGGGGSGGGGSQAGLTQPPAVSVAPGQTASITCGRDNIGSRSVHWYQQKPGQAPVLVVYDDSDRPAGIPERFSGSNYENTATLTISRVEAGDEADYYCQVWGITSDHVVFGGGTKLTVLAAADKTHTCPPCPAPPVAGPSVFLFPPKPKDTLMISRTPEVTCVVVDVSHEDPEVKFNWYVDGVEVHNAKTKPREEQYNSTYRVVSVLTVLHQDWLNGKEYKCKVSNKGLPSSIEKTISKAKGQPREPQVYTLPPCRDELTKNQVSLWCLVKGFYPSDIAVEWESNGQPENNYKTTPPVLDSDGSFFLYSKLTVDKSRWQQGNVFSCSVMHEALHNHYTQKSLSLSPGK
notes: Three different polypeptides; also called bispecific, trivalent Diabody-scFv fusion protein targeting HER3 (3-43) and CD3 (huU3)
Turning to B2, the EC50 in assay [1] came to 8.1 nM; in assay [2] it was 9 nM; in assay [3] it was 0.037 nM.

B3: Db3-43xhu225-EHD2-Fc (bispecific antibody)
heavy: EVQLVESGGGLVQPGGSLRLSCAASGFSLTNYGVHWVRQAPGKGLEWLGVIWSGGNTDYNTPFTSRFTISRDNSKNTLYLQMNSLRAEDTAVYYCARALTYYDYEFAYWGQGTTVTVSSGGGGSQAGLTQPPAVSVAPGQTASITCGRDNIGSRSVHWYQQKPGQAPVLVVYDDSDRPAGIPERFSGSNYENTATLTISRVEAGDEADYYCQVWGITSDHVVFGGGTKLTVLASDFTPPTVKILQSSCDGGGHFPPTIQLLCLVSGYTPGTINITWLEDGQVMDVDLSTASTTQEGELASTQSELTLSQKHWLSDRTYTCQVTYQGHTFEDSTKKCADSNDKTHTCPPCPAPPVAGPSVFLFPPKPKDTLMISRTPEVTCVVVDVSHEDPEVKFNWYVDGVEVHNAKTKPREEQYNSTYRVVSVLTVLHQDWLNGKEYKCKVSNKGLPSSIEKTISKAKGQPREPQVYTLPPSRDELTKNQVSLTCLVKGFYPSDIAVEWESNGQPENNYKTTPPVLDSDGSFFLYSKLTVDKSRWQQGNVFSCSVMHEALHNHYTQKSLSLSPGK
light: QVQLQQSGPGLVKPSQTLSLTCAISGDSVSSNRAAWNWIRQSPSRGLEWLGRTYYRSKWYNDYAQSLKSRITINPDTPKNQFSLQLNSVTPEDTAVYYCARDGQLGLDALDIWGQGTMVTVSSGGGGSDIQLTQSPSFLSASVGDRVTITCRASQSIGTNIHWYQQKPGKAPKLLIKYASESISGVPSRFSGSGSGTEFTLTISSLQPEDFATYYCQQNNNWPTTFGAGTKLEIKRTDFTPPTVKILQSSCDGGGHFPPTIQLLCLVSGYTPGTINITWLEDGQVMDVDLSTASTTQEGELASTQSELTLSQKHWLSDRTYTCQVTYQGHTFEDSTKKCADSN
notes: homodimeric Fc part; also called bispecific, tetravalent diabody fusion protein using EHD2
Turning to B3, the EC50 in assay [4] was determined as 1.4 nM; in assay [5] it was 0.28 nM; in assay [6], 0.35 nM.

B4: Db3-43xhu225-het1EHD2-Fc (bispecific antibody)
heavy: EVQLVESGGGLVQPGGSLRLSCAASGFSLTNYGVHWVRQAPGKGLEWLGVIWSGGNTDYNTPFTSRFTISRDNSKNTLYLQMNSLRAEDTAVYYCARALTYYDYEFAYWGQGTTVTVSSGGGGSQAGLTQPPAVSVAPGQTASITCGRDNIGSRSVHWYQQKPGQAPVLVVYDDSDRPAGIPERFSGSNYENTATLTISRVEAGDEADYYCQVWGITSDHVVFGGGTKLTVLASDFTPPTVKILQSSCDGGGHFPPTIQLLCLVSGYTPGTINITWLEDGQVMDVDLSTASTTQEGELASTQSELTLSQKHWLSDRTYTCQVTYQGHTFEDSTKKSADSNDKTHTCPPCPAPPVAGPSVFLFPPKPKDTLMISRTPEVTCVVVDVSHEDPEVKFNWYVDGVEVHNAKTKPREEQYNSTYRVVSVLTVLHQDWLNGKEYKCKVSNKGLPSSIEKTISKAKGQPREPQVYTLPPSRDELTKNQVSLTCLVKGFYPSDIAVEWESNGQPENNYKTTPPVLDSDGSFFLYSKLTVDKSRWQQGNVFSCSVMHEALHNHYTQKSLSLSPGK
light: QVQLQQSGPGLVKPSQTLSLTCAISGDSVSSNRAAWNWIRQSPSRGLEWLGRTYYRSKWYNDYAQSLKSRITINPDTPKNQFSLQLNSVTPEDTAVYYCARDGQLGLDALDIWGQGTMVTVSSGGGGSDIQLTQSPSFLSASVGDRVTITCRASQSIGTNIHWYQQKPGKAPKLLIKYASESISGVPSRFSGSGSGTEFTLTISSLQPEDFATYYCQQNNNWPTTFGAGTKLEIKRTDFTPPTVKILQSSSDGGGHFPPTIQLLCLVSGYTPGTIQITWLEDGQVMDVDLSTASTTQEGELASTQSELTLSQKHWLSDRTYTCQVTYQGHTFEDSTKKCADSN
notes: also called Db3-43xhu225-hetEHD2-Fc
With B4, the EC50 was 0.56 nM in assay [4], 0.24 nM in assay [5] and 0.34 nM in assay [6].

B5: anti-TNFR2 IgG (antibody, V domains shown)
VH: QVQLQQSGAEVKKPGSAVKVSCKASGGTFSSYAISWVRQAPGQGLEWMGRIIPILGIANYAQKFQGRVTITADKSTSTAYMELSSLRSEDTAVYYCARDGLGDAFDIWGQGTMVTVSS
VL: QSALTQPRSVSGSPGQSITISCTGTSSDVGGYNYVSWYQQHPGKAPKLMIYDVSNRPSGVSNRFSGSKSGNTASLTISGLQAEDEADYYCSSYTSSSTLVVFGGGTKLTVL
With B5, the “EC50 of cell death induction, Kym-1 cells, MTT assay after 24 hours” value in assay [7] was roughly 30 nM. This molecule came in with an EC50 in assay [8] of 0.7 nM.

B6: hu225-IgG (antibody, V domains shown)
VH: EVQLVESGGGLVQPGGSLRLSCAASGFSLTNYGVHWVRQAPGKGLEWLGVIWSGGNTDYNTPFTSRFTISRDNSKNTLYLQMNSLRAEDTAVYYCARALTYYDYEFAYWGQGTTVTVSS
VL: DIQLTQSPSFLSASVGDRVTITCRASQSIGTNIHWYQQKPGKAPKLLIKYASESISGVPSRFSGSGSGTEFTLTISSLQPEDFATYYCQQNNNWPTTFGAGTKLEIK
Molecule B6 showed an EC50 in assay [5] of 0.23 nM.
